According to EP4324849A1 (Emergence Therapeutics AG, dated 2024):

T1: his-tagged recombinant extra cellular domain of the Nectin-4 protein (R&D systems/Biotechne) (Homo sapiens (Human), UniProt Q96NY8 32-349)
T1 construct: Bought protein; also called His-Nectin-4; recombinant his-tagged Nectin-4 EC; not shown: His tag
T1 sequence: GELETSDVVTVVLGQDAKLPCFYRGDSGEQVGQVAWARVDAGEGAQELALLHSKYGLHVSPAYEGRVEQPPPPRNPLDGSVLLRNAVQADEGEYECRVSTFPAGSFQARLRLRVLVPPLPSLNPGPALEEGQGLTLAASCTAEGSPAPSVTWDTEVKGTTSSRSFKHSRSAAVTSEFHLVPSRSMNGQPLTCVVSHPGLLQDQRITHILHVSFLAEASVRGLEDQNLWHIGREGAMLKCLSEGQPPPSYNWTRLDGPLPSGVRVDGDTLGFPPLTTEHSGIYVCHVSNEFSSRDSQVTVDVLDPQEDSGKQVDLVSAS

T2: homodimer recombinant Fc protein, IgV domain of human Nectin-4 fused to human Fc domain (human, UniProt Q96NY8 32-146, limits assumed)
T2 construct: also called Fc-Nectin-4; Fc fusion IgV Nectin-4 domain; not shown: human Fc domain
T2 sequence: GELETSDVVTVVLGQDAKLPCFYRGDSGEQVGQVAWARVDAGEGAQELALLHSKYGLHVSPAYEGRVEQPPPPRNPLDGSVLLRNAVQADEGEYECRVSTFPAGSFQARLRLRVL

B1: HA22 (Enfortumab), human monoclonal anti-Nectin-4 antibody (antibody, V domains shown)
VH: EVQLVESGGGLVQPGGSLRLSCAASGFTFSSYNMNWVRQAPGKGLEWVSYISSSSSTIYYADSVKGRFTISRDNAKNSLSLQMNSLRDEDTAVYYCARAYYYGMDVWGQGTTVTVSS
VL: DIQMTQSPSSVSASVGDRVTITCRASQGISGWLAWYQQKPGKAPKFLIYAASTLQSGVPSRFSGSGSGTDFTLTISSLQPEDFATYYCQQANSFPPTFGGGTKVEIK
B2: Ch-5A12.2 (parental chimeric 5A12.2 monoclonal anti-Nectin-4 antibody) (antibody, V domains shown)
VH: QIQLQQSGAELVKPGASVTLSCKTSGFTFNSMYISWLKQKPGQSLEWIAWIYAGTGGTRFNQKFTGKVQLTVDTSSSTAYMQFSSLTTDDSAIYYCAIRSGFVPMDYWGQGTSVTVSS
VL: SIVMTQTPKFLLVSAGDRVTITCKASQSVSNDVAWYQQKPGQSPKLLIYYASNRYTGVPDRFTGSGYGTDFTFTISTVQAEDLAVYFCQQDYSSPWTFGGGTKLEIK

Key:
[1] = biological target: T1, his-tagged recombinant extra cellular …; experiment: BLI (Octet Red96), antibody on AHC sensor, His-Nectin-4 ECD as analyte, 1:1 model
[2] = biological target: T2, homodimer recombinant Fc protein, IgV …; experiment: BLI (Octet Red96), antibody on FAB2G sensor, IgV-Fc homodimer as analyte, 1:2 bivalent analyte model
[3] = biological target: T1, his-tagged recombinant extra cellular …; experiment: BLI (Octet Red96), His-Nectin-4 ECD as analyte

| Binder | Kd [1] [nM] | Kd [2] [nM] | Kd [3] [nM] | koff [3] [s⁻¹] | kon [3] [M⁻¹ s⁻¹] |
| --- | --- | --- | --- | --- | --- |
| B1 | 5.2 | 12.9 | – | – | – |
| B2 | 4.2 | 5.3 | 3.4 | 0.000928 | 275000 |
